# Measurements as given in publication PMC10665427, “The heat shock protein LarA activates the Lon protease in response to proteotoxic stress” (Nature Communications, 2023).
# B1: N-terminally 3xFLAG-tagged LarA [C. crescentus] / Lon, endogenous [C. crescentus (endogenous in WT cells)] (parent complex)
# chain 1: MTPSTQHSRPLTSEAFAALGAPALVYVRPIKAAEILADAPEGVEDLDLSPDQTLYAVCRADGERLAVLIDRDTAIAAALAHELAPVSVH
# chain 2: MSELRTLPVLPLRDIVVFPHMVVPLFVGRDKSVRALEEVMRGDKQILLVTQKNSADDDPAPGDIFEVGVLATVLQLLKLPDGTVKVLVEGKARAAVVSFTDQESYYEAQIGEVSEDDGAGPEAEALSRAVVEQFENYVKLNKKVPPEALASIPQIAEPGKLADSIAAHLSVKIGDKQNLLEIFDVVKRLEKVFALMEGEISVLQVEKKIRSRVKRQMEKTQREYYLNEQMKAIQRELGDPDDARDELIDLEKRIKKTKLSKEARTKAESELKKLRNMSPMSAESTVVRNYLDWLLSIPWGKAKTKKIDLVESEGILDADHYGLEKVKERILEYLAVQARTNSLKGPILCLVGPPGVGKTSLGKSIAKATGREFVRMSLGGVRDEAEIRGHRRTYIGSMPGKVVQSMKKAKTTNAFVLLDEIDKMGSDYRGDPASALLEVLDPSQNSTFGDHYLEVDYDLSQVMFVTTANSLNMPQPLLDRMEIIRIPGYTEDEKLEIAKRHILPKLAKDHGLKPAEFIVPDKAIRDLIRYYTREAGVRSLERELGALARKTVRDLAREKVASITIDDERLAKYAGVKKYRYGETDEVDQVGIVTGLAWTEFGGDILTIEAVKMPGKGRMQITGNLKDVMKESIAAANSYVRSRALQFGIKPPVFEKTDVHIHVPDGATPKDGPSAGIAMALAMVSVLTGIPIRKDIAMTGEITLRGRVTAIGGLKEKLLAALRSGVKTVLIPQENEKDLADVPQTVKDGLEIIPVSTVDEVLKHALTGPLTPVEWNEAEEPITTSAKKDDGDSDAMLTH
# Variants of: B1
# Assay: co-immunoprecipitation (α-FLAG IP, anti-Lon immunoblot quantified); WT cells, Pxyl-3xFLAG-larA variants induced one hour with xylose prior to cell lysis and IP; n = 3; parent: 4.5; read off a plot
row,response,Variant
1,~1.7 relative Lon level (vs VC = 1),"chain 1 MTPSTQHSRPLTSEAFAALGAPALVYVRPIKAAEILADAPEGVEDLDLSPDQTLYAVCRADGERLAVLIDRDTAIAAALAHELAPASAH [chain 1 V86A, chain 1 V88A]"
2,~1 relative Lon level (vs VC = 1),"chain 1 MTPSTQHSRPLTSEAFAALGAPALVYVRPIKAAEILADAPEGVEDLDLSPDQTLYAVCRADGERLAVLIDRDTAIAAALAHELAPVSDD [chain 1 V88D, chain 1 H89D]"
